Results taken from PMC3355227.
Where no end group is shown, it is not given here. [ ]: non-standard residue; d: D form. The star is where a group is joined. pT = C[C@@H](OP(=O)(O)O)[C@H](N)C(=O)O; Butyl(4-Ph) = c1ccc(CCCC*)cc1

Key:
[1] = target: Plk1 polo-box domain (PBD), purified protein of the fluorescence polarization assay; assay: fluorescence polarisation
HA-EGFP-Plk1, P53350 = assay: ELISA; details: remark: other sources report otherwise
Sequence of HA-EGFP-Plk1, P53350 (P53350 whole entry): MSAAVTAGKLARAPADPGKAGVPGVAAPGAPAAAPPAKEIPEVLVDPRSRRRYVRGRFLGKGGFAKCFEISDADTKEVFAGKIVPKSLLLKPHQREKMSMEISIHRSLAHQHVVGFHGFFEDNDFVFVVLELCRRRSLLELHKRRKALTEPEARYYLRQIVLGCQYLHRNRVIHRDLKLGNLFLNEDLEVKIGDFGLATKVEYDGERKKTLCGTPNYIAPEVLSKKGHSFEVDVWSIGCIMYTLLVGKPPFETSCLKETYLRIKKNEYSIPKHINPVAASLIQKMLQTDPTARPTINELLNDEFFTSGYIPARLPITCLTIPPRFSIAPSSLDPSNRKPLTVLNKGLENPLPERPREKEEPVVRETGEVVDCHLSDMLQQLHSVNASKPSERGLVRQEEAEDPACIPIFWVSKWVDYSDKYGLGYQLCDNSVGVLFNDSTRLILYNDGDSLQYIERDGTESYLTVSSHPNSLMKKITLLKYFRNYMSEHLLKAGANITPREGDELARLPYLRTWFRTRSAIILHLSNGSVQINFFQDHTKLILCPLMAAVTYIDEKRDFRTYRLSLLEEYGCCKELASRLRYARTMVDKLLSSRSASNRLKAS

Binder	IC50 [1]	IC50 (HA-EGFP-Plk1, P53350)
P(Butyl(4-Ph))LHA[pT] [peptide 7(S4A)]	4.15 µM	43 µM
P(Butyl(4-Ph))LHS[pT] [peptide 8]	0.038 µM	–
GPMQS[pT]PLNG-OH (N-terminus assumed; SMILES CSCC[C@H](NC(=O)[C@@H]1CCCN1C(=O)CN)C(=O)N[C@@H](CCC(N)=O)C(=O)N[C@@H](CO)C(=O)N[C@H](C(=O)N1CCC[C@H]1C(=O)N[C@@H](CC(C)C)C(=O)N[C@@H](CC(N)=O)C(=O)NCC(=O)O)[C@@H](C)OP(=O)(O)O) [peptide GPMQSpTPLNG-OH (9)]	1.12 µM	–
